1 molecule from paper PMC5241945, “A new enzyme-linked immunosorbent assay (ELISA) for human free and bound kallikrein 9” (Clinical Proteomics, 2017) can be followed below.

The assay has as its target T1, human recombinant serpinA3 inhibitor (R&D systems) (human, UniProt P01011 24-423).
T1 construct: alpha-1-antichymotrypsin (serpinA3), human, recombinant; also called a1-antichymotrypsin; ACT; source: bought: R&D Systems
T1 sequence (looked up): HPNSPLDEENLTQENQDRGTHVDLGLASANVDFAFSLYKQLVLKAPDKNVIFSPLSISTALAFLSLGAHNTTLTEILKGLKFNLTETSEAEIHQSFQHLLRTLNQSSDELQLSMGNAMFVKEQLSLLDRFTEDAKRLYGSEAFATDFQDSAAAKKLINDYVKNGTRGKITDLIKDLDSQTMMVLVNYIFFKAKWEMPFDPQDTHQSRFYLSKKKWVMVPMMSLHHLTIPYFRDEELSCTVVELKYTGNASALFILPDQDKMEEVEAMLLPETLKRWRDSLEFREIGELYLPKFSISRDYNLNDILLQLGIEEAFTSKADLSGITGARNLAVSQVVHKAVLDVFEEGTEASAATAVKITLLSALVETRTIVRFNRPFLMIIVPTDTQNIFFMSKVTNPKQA
Description: ELISA; mat-KLK9 (0.5 μg) incubated alone or with recombinant serpinA3 at molar ratios KLK9/serpinA3 1/0.2, 1/0.5, 1/1 and 1/2 in 50 mM Tris-HCl pH 8.0, 1 h, 37 °C; the free KLK9 left was then measured by the sandwich ELISA (28ED436 / biotinylated 4ED28.2) as % recovery against the control without inhibitor. The following applies: both partners purified.

B1: mature form of KLK9 (mat-KLK9) (aa 23–250), recombinant (enzyme, human, UniProt Q9UKQ9 23-250, looked up)
chain: AIGAEECRPNSQPWQAGLFHLTRLFCGATLISDRWLLTAAHCRKPYLWVRLGEHHLWKWEGPEQLFRVTDFFPHPGFNKDLSANDHNDDIMLIRLPRQARLSPAVQPLNLSQTCVSPGMQCLISGWGAVSSPKALFPVTLQCANISILENKLCHWAYPGHISDSMLCAGLWEGGRGSCQGDSGGPLVCNGTLAGVVSGGAEPCSRPRRPAVYTSVCHYLDWIQEIMEN
notes: Human tissue kallikrein 9 (KLK9), UniProt Q9UKQ9 (KLK9_HUMAN); mature form aa 23-250 of the pre-pro-enzyme (1-250), lacking the signal peptide and the pro-segment; Glycosylated: migrates at ~42 kDa, ~25 kDa after PNGase F; also called mature KLK9; kallikrein 9
Take B1: the binding result is listed as “binds”.
